{
  "source": "paper PMC2930029",
  "origin": "cited, not measured here",
  "key": {"C3b C3b (Homo sapiens) [1]": {"molecular_target": "C3b C3b (Homo sapiens) (UniProt P01024)", "sequence (P01024 566-670)": "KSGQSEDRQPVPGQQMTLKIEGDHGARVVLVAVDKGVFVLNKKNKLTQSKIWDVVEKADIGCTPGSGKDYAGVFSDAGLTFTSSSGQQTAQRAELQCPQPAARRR", "assay": "SPR"}, "C3b C3b (Homo sapiens) [2]": {"molecular_target": "C3b C3b (Homo sapiens) (UniProt P01024)"}},
  "note": "Like-named read-outs stand apart in the source and are kept apart here.",
  "data": [
    {"substance": "Efb (from UniProt P68799)", "values": [
      {"measurement": "Kd", "setting": "C3b C3b (Homo sapiens) [1]", "value": 10, "unit": "nM"}
    ]},
    {"substance": "Factor H fH(1-4) (from UniProt P08603)", "values": [
      {"measurement": "Kd", "setting": "C3b C3b (Homo sapiens) [2]", "value": 11000, "unit": "nM"}
    ]},
    {"substance": "SCIN (from UniProt A7X482)", "values": [
      {"measurement": "Kd", "setting": "C3b C3b (Homo sapiens) [1]", "value": 180, "unit": "nM"}
    ]}
  ]
}
